Here are results for 20 sequences from the DeepSol protein solubility set.

The data set can be described thus: soluble on expression in E. coli; label from the status in PepcDB or PDB records.
Regarding “MCLILFALDAHPRYRLVLAANRDEFYARPTAPAAFWDDAPQVLAGRDLTAGGTWCGVTRDGRIAAVTNYRDPGAHRVGARSRGELVAGFLGGDEAPSRWLEHLQRNGHDYNGFNLIFGDGNGLHYHSNRGAAASPLSPGIHGLSNHLLDTPWPKVARGRDALARLLATADEPAVDDLFAILANRTPAPDHLLPDTGVSLDWERLLSPLFITSPTYGTRSSTVILVDRSGQCTFVERSYNGAADHPRTVEYRFEVITLEHHHHHH”, the “soluble on expression in E. coli” value is “not soluble”. In the case of “MCPPYGANKFSRKKVMYVIVDIQGQQMKVEQGRRLFVHHIKDVESGASVEFDKVLLVDNNGAITVGSPLVEGAKVVCEVLTPLVKGDKVLIFHKKRRKGYRKLNGHRQQFTEILVKEVVA” it was “not soluble”; in that of “MCSLLKLLKISGKSVSDDDPIERYIKCEQCKCKRHWVEQLQRDEMDQMLHRLQFENKQLRKELEWKRGAASTMEIDRSSKRHQERHQSESRGGTLPLRNGRSVVSLKSTQSQNDVMDEAKALRLHKQRLEHRSRILEQQNEQLEMQLQRLKKVIDAQKQQAPLSTNSLLRGSHHQPWSPERARSGSASTLDRGLIVSSRHQEQAEAAGGGAEDSSDEAGGAGGGPRGSSVGQMQNLMTACDDLGKAMESLVVSVVYDSDDEEND”, “not soluble”. Turning to “MCSLNELITGIKELPEPDLTASRLMDAAADYVPLKLRGHIDAKDINSSPKTLENGGTEFFQALIDITHPRLRLYGSGKELAENVRIHRNFPTSHRSPIIYKSLDNNQYIYKTDVFIIIQNICGYRKDSTNNIIELNRFLEVMYLKAREETSRKYLEFVRFDADSFRKIEKKFEKFNQGACFVDRSLEQRNSNGDHLPIVQELDSMKSIEFIQHPIQRAKHKAVPIEDLKPGSYCILAVDALFELFNEIIWGSRVFEKHKVPKIIEYVLKIPTLLFKSELRFPHFIKTAHLHRLLASFEVSLSSFHFPANPVKEVRNAKADHGFTLQNLKNELTYLGLTETFPDITDYAEIAYNEVMRVKKEMLLRTCDLFDAIEHCQLLCIFNRSPFLKQFLHNQKACHRLVGLHCDLCIKEKVEKSENQEAWDLDESSSTKSPIDCKKCSQTLQTIEDVKKELKTSQNKENKMRKKVSELEKKLDVENVQNEQEVKEMEDDLRGKQEELNILRNDSLKVHDVLMEIADLKQKHSKLEKHVEGLKEENLKQERNYNLTQSNLEANLSSMREGLTILQQYTEELEQERQKYQEMLTARSEETSVQAEPAGGEEEMLDVTKQIEEAKEEKIRLKAEHDANERIIQQLLDKLANFS”, the “soluble on expression in E. coli” value is “not soluble”.

On to “MCTVSLCVSLCLWMHNETVQVAMALEFKDKWLEQFYEDDKRHRLIPSSIENALFRKLEILDAAQAESDLRIPPGNRFEHLEGNLKGWCSIRVNKQYRLIFQWVDGVALNTYLDPHKY”, for which the “soluble on expression in E. coli” value was “not soluble”. As to “MDADDLRQLAINVSMDDIAASRDATKRLQQLFTPQQIVAMLKDAPSTHALRVLVGEMEAVGNPDVFHLIGGVLEDVFTQPSRESKAVLFAPAAQFLVEFIVRSAAAADTAVASSMSKALHRLIAIAGDSTEAAAFLGPCLDANFHNEQVLRLFDCDAVESAENKTVCGFLEQWTSLLPFMFEATLDAFENDPLLQANYTIASGVACRTVDVPSALRQRTMDILRAKDDSLCFAYVCRFWSIALLRHEANGQRDAAACVSTVMPAAEASERDERATEAIFDLLGSAASTQAGWDAVTRQLPCKTLQVRLSSTSPSLRLSTLNLMLCMLTSPHMNVSFFTKDLLLDAWQTRTSPDDMVRLALWRVANAALLQESLNRMLGAACASFLSSGAHEENVAVRSLKLTAAERLLRHSTLPENVKARLSQVVERGLYPAGSSGVSLIAKD”, the “soluble on expression in E. coli” value is reported as “not soluble”. In the case of “MDADKDNIKQACDERSAEMDDMRGEQSMGLVHEIMSENKELDEEIKKLEAELQSDAREFQIKENVPEKKLKLTSVESPEDGCHFSNSSCSFQVSSQILYELQKGQALITFEKEEVAQNVISMGNHVVQMEGTPVKVSAHPVPLNTGVRFQVHVDISKMKINVTGIPDELSEEQTRDKLELSFCKSRNGGGEVESVDYDRKSRSAVITFVETGVVDKILKKKTYPLYMNQKCHSVAVSPCIERRLEKYQVFSAVSKKTVLLTGLEGIRVDEETGEDLLNIHFQRKNNGGGEVEVVKCSLDQSFAAYFKEEARETI” it was “not soluble”; in that of “MDAELLEIYNFLAKYPPFNELPEETLTKVTESVEISYYRQDTPIIHFGDHIQDLFVVRSGVVEVYRRKGELYNRLDEGDLFGQMGLLTNNKVRFPVKAIEDTLLYCIPVEVFQEIYDNFDSFADFVEVENSARLRQTISENKDANDLTTSKVKTLLTGDAPTINRGQTIQQAAQLMAQDNISSLLIVDPDFVLDEDDPQSPVLGIITDRDLCTRVLAEGLSPQDDVSTVMTTEVISLDHNAYIYEAMLTMLRYNVHHLPVVKNQLPIGIIETTDIVRYESQNSLLLVSSIFQQQSIEDLATVAEEVKSSFVRLVNEDANSHMVGSAMSVIGRSFKQRLLELAEEELGAPPIPYCFLALGSMGRDEQLLVTDQDNAIILDESYQEEKHGKYFEDLAKFVSDGLDACGYKYCTGDIMATNPMWRMTRSEWEECFADWIDDPNPKALLNASIFFDLDGVYGRLKWAEQLTSFIVRRARKNNRFLACLARNALNRTPPLGFFKDFVMEKDGQHKNSINLKRRGTAPLVDLIRVHALAVGSRAQNSFERLDDIIDAGILPKGRAQDLKDALEFISMVRIRHQATDVELGIEPDNNIEPENLSDFERRNLKDAFQILSNGQNFLKFRYQANKSFK”, “not soluble”. Consider “MDAEQLLKAITPEVYDRLVYAVETGRWPEGTTLSREQRDSCMQAVMLYQSKHNTEAQHMTVAAGGEISFKSKQELKKQFNTDESDIVRVNPNLD”, for which the “soluble on expression in E. coli” value is on record as “not soluble”. On to “MDAFIVDPVQGELYSGLSHTELADIIRLADSVENQLNGGNSFLDVFSTYMGQVISEFMHSNDNRIELLQRRLHSCSFLVNIEEMSYIDEALQCPITLAIPQRGVFLRNAEGSRVCSLYDEMALSRIINDGMHHPLSREPITLSMLVAREQCEFDCSIGHFTVRSDCYSV”, for which the “soluble on expression in E. coli” value is reported as “soluble”. For “MDALVANYASDSDSDGDAPAATAGEAAPVPPEPSALLPPPPLDLLQPPNFVDCSTMAQGSRVRSFPHVEGNYALHVYIPVVIPSDAKKHLVLVMRRAASFVPDLYAIDADYALSELCKDEQKLEKVLLSREFHVSLGRTVAIQVHQIESLVAMLRQKFRSQQRYWMDFNKWEHFVNDDCTRSFLSLEVTSTGLPEISKQITMVDDVYRLHGLPEFYKNPRPHISLAWALGDVSCKLKQAIKEIEKSQSSLGTSQISNLRCKFSHVVCKIGKKVYDICKLAD”, the “soluble on expression in E. coli” value is recorded as “not soluble”. In the case of “MDANTLNVSFEEILKGKKLDEDSIGLTLSPDKDHEDGSQVSPTQDRKELDQVVGEDEKDDFFE” it was “soluble”; in that of “MDATDDIRAGELASDWSGSPDAGVVFIGRIHTPWNRLKECPRHGRADGPVCRIEVFETWLPALAGIDDGTLLEVFYWLHRSRRDLLLQCPRNDGDARGTFSIRSPLRPNPIGTSIARVDRRDGANLFIRGLDCLDGTPLVDLKPDRAEFMPLAPPKPGDFQVGEPRR”, “soluble”. In the case of “MDAYEIIQYIGDAKKQTLVKVTLKGQLKEVTFPETIKVFNNCKTGTLFGDWADVKPFLEANKEKIEDYVVENDARNSAIPFLDLKDINARIEPGALIREKVEIGDQAVIMMGAILNIGAVVGAGTMIDMGAVLGGRATVGKHCHIGAGTVLAGVIEPPSAAPVVIENEVVIGANAVVLEGVRVGEGAVVAAGAVVVEDVPAHTVVAGVPAKVIKQIDDKTKSKTEILEELRKL” it was “soluble”; in that of “MDCRLGCGACCIAPSISSPIPGMPKGKPAGVRCVQLNDDNLCKLFGKPERPKVCHDFKPCPVVCGKTNQEALDNITELEQLTLEHHHHHH”, “soluble”; in that of “MDDDPHFDQNVQTVIAKTEAYITESVKAGGTGRALRDAHAKGYGLVRGEVEILDGLPPEYAQGIYATPGTHDALIRFSNGSPHAGADARLGAATGLALKIFDIPGPTLLEDEPDTGTFDYANINGPIFFCNTVEHYLFIQELFLNAPAYFSQGRPGAHRFFTDFVTGKGTLDQDDWAWDEFLAFLRLSKTPPANLLLSSYWTMGAVRHGDYIAKVRITPDPSFAAAVVRRDIDPTSAQEVFRPALEAELQERPYAFDIQVQLCTDLERMPVEDTTVEWPEQLSPSVTVAKLRLPRQDISGPENLEKMDSLSFTPWRVTAEHAPLGNIMRSRKEVYRQSSMERHKLEHHHHHH”, “not soluble”.

For “MDDLPYLARGVMPVETPSSVLVSSSKYLNNPRLREWLAMILLRKNGPDFPPPAEMYEFLPILEELRDHDRIEAMFAEERRVNPELDAWLSEGFYSTYAIEDFRQFAPGTLGGIFYQWITEGNYEIQITPWREPKSQLEFYNLRSGQTHDFEHILCGGGFNFMGELVPYWYRLTNVFKHIRNQELAAELSMIQIFGSLRYTVRTMLHYPQIWMTCVDAIQRGMKVGQESDALFMKKLEPHFHLPLEEARAALGVRGAVDVDTEIEGAFWAGRAPLSALTERIAAELEHHHHHH”, the “soluble on expression in E. coli” value is listed as “soluble”. For “MDEEDPINPCFQTISMGGGYVSGEIYRSDFEINDDARCIITTQSSAKAYKTVDGKTSEQHTNITLGKNSILEYISDNVIVYEDGKFAQFNNFKMDSSATLIYTECFGPGSPHGSAYQYEKMYLNTKIYYDDKLVLFDNLKFQPRKNDESAFGIMDGYHYCGTMIVINQQVIEDDVIKIRDLVKEKYPDMDMIFGVSRMDIPGLGLRVLANTYYHVEKINAVAHDYFRRKLFNKKPLILRKPLEHHHHHH”, the “soluble on expression in E. coli” value is “not soluble”. For “MDEFEMIKRNTSEIISEEELREVLKKDEKSAIIGFEPSGKIHLGHYLQIKKMIDLQNAGFDIIILLADLFAYLNQKGELDEIRKIGDYNKKVFEAMGLKAKYVYGSSFMLDKDYTLNVYRLALKTTLKRARRSMELIAREDENPKVAEVIYPIMQVNPLHYEGVDVAVGGMEQRKIHMLARELLPKKVVCIHNPVLTGLDGEGKMSSSKGNFIAVDDSPEEIRAKIKKAYCPAGVVEGNPIMEIAKYFLEYPLTIKRPEKFGGDLTVNSYEELESLFKNKELHPMDLKNAVAEELIKILEPIRKRLLEHHHHHH”, the “soluble on expression in E. coli” value is recorded as “soluble”. In the case of “MDEQEIQRLVEEVSLQYFGMPFLHKAMFNSRLRTTGGRYLLNTHNIELNYRYYEMYGKEELVGIVKHELCHYHLHITGRGYKHRDKDFRELLKAVDAPRFCKRMINEEKGKKVYMYECMECSLQYVRRRQINTKRYVCGKCKGKLILIKKTSLEHHHHHH”, the “soluble on expression in E. coli” value is given as “not soluble”.
